We go through 27 molecules from patent publication US20160075790A1 (Bristol-Myers Squibb, published 2016).

B1: 2h116-1320-Fc (Fc fusion, not shown: a dimerising Fc or GST)
chain: DIQMTQSPSSLSAYVGDRVTITCRASQPIGPDLLWYQQKPGKAPKLLIYQTSILRSGVPSRFSGSGSETDFTLTISNLQPEDFAKYYCQQYWAFPVTFGQGTKVVIKR
B2: 2h572-6 Fc (Fc fusion, not shown: a dimerising Fc or GST)
chain: EVQLLESGGGLVQPGGSLRLSCAASGFTFNWQLMGWVRQAPGKGLEWVSGIEGPGDVTYYADSVKGRFTISRDNSKNTLYLQMNSLRAEDTAVYYCVKVGKESNSDYRGQGTLVTVSS
B3: 2h572-634 Fc (Fc fusion, not shown: a dimerising Fc or GST)
chain: B2 chain with Q32E, V37A, E102D, N104R
B4: 2h572-619-N297Qshort Fc (Fc fusion, not shown: a dimerising Fc or GST)
chain: B2 chain with E102D, N104R
B5: 2h572-633 Fc (Fc fusion, not shown: a dimerising Fc or GST)
chain: B2 chain with Q32E, V37A, E102D, S103A, N104K
B6: 2h572-619-Ctshort Fc (Fc fusion, not shown: a dimerising Fc or GST)
chain: B2 chain with E102D, N104R
B7: 2h572-635 Fc (Fc fusion, not shown: a dimerising Fc or GST)
chain: B2 chain with Q32E, V37A, E102D, N104K
B8: 2h503-1 Fc (Fc fusion, not shown: a dimerising Fc or GST)
chain: DIQMTQSPSSLSASVGDRVTITCRASHHIQRYLSWYQQKPGKAPKLLILWGSQLQSGVPSRFSGSGSGTDFTLTISSLQPEDFATYYCGQWWAPPQTFGQGTKVEIKR
B9: BMS2h-492-3 (other)
VL: DIQMTQSPSSLSATVGDRVTITCRASQAIETNLEWYQQKPGKAPKLLIYDASMLQSGVPSRFSGSGSGTDFTLTISSLQPEDFATYYCQQYDAYPPTFGQGTKVEIKR
B10: BMS2h-492-4 (other)
VL: B9 VL with T14S, T31H, S65R
B11: BMS2h-494-4 (other)
VL: EIQMTQSPSSLSASVGDRVTMTCRASQSIDKDLEWYQQKPGKAPRLLIYSSSWLQRGVPSRFSGSGSGTDFTLTISSLRPEDFATYYCQQYFQYPPTLGQGTKVEIKR
B12: BMS2h-494-6 (other)
VL: B11 VL with E1D, S9P, M21I, R79Q, Y87H, L98F
B13: BMS2h-572-623 (other)
VH: B2 chain with N104S
B14: BMS2h-572-622 (other)
VH: B2 chain with E102D, N104T
B15: BMS2h-572-630 (other)
VH: B2 chain with N30K, E102D, S103A, N104K
B16: BMS2h-572-619 (other)
VH: B2 chain with E102D, N104R
B17: BMS2h-572-631 (other)
VH: B2 chain with N30K, E102D, N104R
B18: BMS2h-572-614 (other)
VH: B2 chain with E102D, S103A, N104K
B19: BMS2h-572-617 (other)
VH: B2 chain with K101R, E102D, N104K
B20: BMS2h-572-608 (other)
VH: B2 chain with Q32E, V37A
B21: BMS2h-572-616 (other)
VH: B2 chain with N104K
B22: BMS2h-572-604 (other)
VH: B2 chain with N30K
B23: BMS2h-572-610 (other)
VH: B2 chain with E102D, N104K
B24: BMS2h-503-2 (other)
VL: B8 chain with H28D
B25: BMS2h-503-1 (other)
VL: B8 chain
B26: BMS2h-503 (other)
VL: B8 chain with Q96P
B27: BMS2h-437-4 (other)
VL: DIQMTQSPSSLSASVGDRVTITCRASTPIGTMLDWYQQKPGKAPKLLIGHSSWLQSGVPSRFSGCGSGTDFTLTISSLQPEDFATYYCGQHVRPPATFGQGTKVEIKR

Where a chain is given by its changes, count along the chain named. Values joined by “and” are separate entries in the source; they are usually repeats but may differ in a detail not shown here. Equal values may be shown once. Bounds are passed on as bounds.

In one assay the target is T1, human CD40L, membrane-bound on cells (human, UniProt P29965 1-261).
T1 sequence: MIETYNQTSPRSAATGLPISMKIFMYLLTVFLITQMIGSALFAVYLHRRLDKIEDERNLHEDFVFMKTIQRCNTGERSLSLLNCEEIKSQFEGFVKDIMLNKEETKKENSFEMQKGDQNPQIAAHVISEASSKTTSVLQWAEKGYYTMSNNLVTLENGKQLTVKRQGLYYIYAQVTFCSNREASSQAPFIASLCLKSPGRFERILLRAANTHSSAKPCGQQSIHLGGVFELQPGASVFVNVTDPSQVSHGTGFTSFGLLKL
The assay is described as follows: cell-based or functional assay.
The molecule B1 returned a CHO-hCD40L-driven DC Activation IL-12 EC50 of 14 nM, a CHO-hCD40L-driven Human B Cell Proliferation EC50 of more than 130 nM and a T-B cell MLR EC50 of 244 nM.

With B2, the CHO-hCD40L-driven DC Activation IL-12 EC50 is 0.22 nM, the CHO-hCD40L-driven Human B Cell Proliferation EC50 is 3 nM and the T-B cell MLR EC50 was 1.9 nM.

For the molecule B3, the CHO-hCD40L-driven DC Activation IL-12 EC50 turned out to be 0.42 nM, the CHO-hCD40L-driven Human B Cell Proliferation EC50 came out at 3.5 nM, the T-B cell MLR EC50 was found to be 0.23 nM and the T-B cell MLR IL-6 EC50 is 0.19 nM.

Turning to B4, the CHO-hCD40L-driven DC Activation IL-12 EC50 turned out to be 1.2 nM; the CHO-hCD40L-driven Human B Cell Proliferation EC50 came to 1 nM; the T-B cell MLR EC50 was 0.226 nM and 0.216 nM; the T-B cell MLR IL-6 EC50 was found to be 0.1 nM.

Molecule B5 returned a CHO-hCD40L-driven DC Activation IL-12 EC50 of 0.34 nM, a CHO-hCD40L-driven Human B Cell Proliferation EC50 of 3 nM, a T-B cell MLR EC50 of 0.15 nM and a T-B cell MLR IL-6 EC50 of 0.11 nM.

As to B6, the CHO-hCD40L-driven DC Activation IL-12 EC50 stood at 1.8 nM, the CHO-hCD40L-driven Human B Cell Proliferation EC50 was 2 nM, the T-B cell MLR EC50 was 0.4 nM and the T-B cell MLR IL-6 EC50 came to 0.3 nM.

For the molecule B7, the CHO-hCD40L-driven DC Activation IL-12 EC50 turned out to be 0.445 nM, the CHO-hCD40L-driven Human B Cell Proliferation EC50 was 2.5 nM, the T-B cell MLR EC50 turned out to be 0.16 nM and the T-B cell MLR IL-6 EC50 is 0.11 nM.

Molecule B8 had a CHO-hCD40L-driven DC Activation IL-12 EC50 of 2.8 nM, a CHO-hCD40L-driven Human B Cell Proliferation EC50 of 60 nM and a T-B cell MLR EC50 of 45 nM.

A further assay concerns the target human isoleucine zipper-CD40L (IZ-hCD40L) (human) (UniProt P29965). The assay is described as follows: cell-based or functional assay.
Molecule B1 registered a hIZCD40L-driven Human B Cell Proliferation EC50 of 13 nM.

Regarding B2, the hIZCD40L-driven Human B Cell Proliferation EC50 is 0.6 nM.

B3 gave a hIZCD40L-driven Human B Cell Proliferation EC50 of 3 nM.

In turn, B4 displayed a hIZCD40L-driven Human B Cell Proliferation EC50 of 0.9 nM.

Molecule B5 registered a hIZCD40L-driven Human B Cell Proliferation EC50 of 3.5 nM.

The molecule B6 registered a hIZCD40L-driven Human B Cell Proliferation EC50 of 1.5 nM.

Take B7: the hIZCD40L-driven Human B Cell Proliferation EC50 worked out at 2 nM.

Molecule B8 yielded a hIZCD40L-driven Human B Cell Proliferation EC50 of 4 nM.

For a further assay, the target named is T2, human isoleucine zipper-CD40L (IZ-hCD40L) (human, UniProt P29965 113-261).
T2 sequence: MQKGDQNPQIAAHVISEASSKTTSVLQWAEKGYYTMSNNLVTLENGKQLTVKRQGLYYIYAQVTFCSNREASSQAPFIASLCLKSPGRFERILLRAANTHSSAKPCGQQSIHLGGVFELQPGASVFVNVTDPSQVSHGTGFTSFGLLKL
The assay is described as follows: cell-based or functional assay.
Turning to B9, the “hIZCD40L-driven Human B Cell Proliferation EC50” value was determined as 1100 nM.

On to B10, for which the “hIZCD40L-driven Human B Cell Proliferation EC50” value was 1700 nM.

Regarding B11, the “hIZCD40L-driven Human B Cell Proliferation EC50” value is 590 nM.

Regarding B12, the “hIZCD40L-driven Human B Cell Proliferation EC50” value worked out at 2000 nM.

Turning to B13, the “hIZCD40L-driven Human B Cell Proliferation EC50” value was 181 nM and 261 nM.

On to B14, for which the “hIZCD40L-driven Human B Cell Proliferation EC50” value is 301 nM and 293 nM.

As to B15, the “hIZCD40L-driven Human B Cell Proliferation EC50” value came out at 103 nM.

With B16, the “hIZCD40L-driven Human B Cell Proliferation EC50” value is 90 nM.

As to B17, the “hIZCD40L-driven Human B Cell Proliferation EC50” value came to 108 nM.

In the case of B18, the “hIZCD40L-driven Human B Cell Proliferation EC50” value came out at 93 nM.

B19: the “hIZCD40L-driven Human B Cell Proliferation EC50” value was 157 nM and 189 nM.

On to B20, for which the “hIZCD40L-driven Human B Cell Proliferation EC50” value worked out at 96 nM.

On to B21, for which the “hIZCD40L-driven Human B Cell Proliferation EC50” value was 204 nM and 340 nM.

For B22, the “hIZCD40L-driven Human B Cell Proliferation EC50” value was 254 nM and 354 nM.

Consider B23, for which the “hIZCD40L-driven Human B Cell Proliferation EC50” value stood at 109 nM.

Consider B24, for which the “hIZCD40L-driven Human B Cell Proliferation EC50” value came to 44 nM.

For the molecule B25, the “hIZCD40L-driven Human B Cell Proliferation EC50” value came to 24 nM.

Turning to B26, the “hIZCD40L-driven Human B Cell Proliferation EC50” value came to 4200 nM.

Regarding B27, the “hIZCD40L-driven Human B Cell Proliferation EC50” value stood at 203 nM.

A further assay has as its target T1, human CD40L, membrane-bound on cells. The assay is described as follows: cell-based or functional assay. The source holds these as a separate data set.
Consider B9, for which the “CHO-hCD40L-driven Human B Cell Proliferation EC50” value is more than 7000 nM.

With B10, the “CHO-hCD40L-driven Human B Cell Proliferation EC50” value was more than 7000 nM.

Take B11: the “CHO-hCD40L-driven Human B Cell Proliferation EC50” value is more than 7000 nM.

For the molecule B12, the “CHO-hCD40L-driven Human B Cell Proliferation EC50” value was more than 7000 nM.

As to B13, the “CHO-hCD40L-driven DC Activation IL-12 EC50” value came out at 280 nM and the “T-B cell MLR EC50” value was more than 7000 nM.

For the molecule B14, the “CHO-hCD40L-driven DC Activation IL-12 EC50” value amounted to 281 nM and the “T-B cell MLR EC50” value is more than 7000 nM.

In the case of B15, the “CHO-hCD40L-driven DC Activation IL-12 EC50” value turned out to be 246 nM.

With B16, the “CHO-hCD40L-driven DC Activation IL-12 EC50” value came to 188 nM and the “T-B cell MLR EC50” value is more than 7000 nM.

Turning to B17, the “CHO-hCD40L-driven DC Activation IL-12 EC50” value came to 230 nM.

On to B18, for which the “CHO-hCD40L-driven DC Activation IL-12 EC50” value worked out at 135 nM and the “T-B cell MLR EC50” value is more than 7000 nM.

On to B19, for which the “CHO-hCD40L-driven DC Activation IL-12 EC50” value was determined as 338 nM and the “T-B cell MLR EC50” value was more than 7000 nM.

Turning to B20, the “CHO-hCD40L-driven DC Activation IL-12 EC50” value was 152 nM and the “T-B cell MLR EC50” value is more than 7000 nM.

In the case of B21, the “CHO-hCD40L-driven DC Activation IL-12 EC50” value was 608 nM and the “T-B cell MLR EC50” value is more than 7000 nM.

As for B22, the “CHO-hCD40L-driven DC Activation IL-12 EC50” value was found to be 387 nM and the “CHO-hCD40L-driven Human B Cell Proliferation EC50” value was more than 700 nM.

For B23, the “CHO-hCD40L-driven DC Activation IL-12 EC50” value was determined as 207 nM and the “T-B cell MLR EC50” value is more than 7000 nM.

Consider B24, for which the “CHO-hCD40L-driven DC Activation IL-12 EC50” value stood at 1560 nM and the “CHO-hCD40L-driven Human B Cell Proliferation EC50” value was determined as 3000 nM.

Consider B25, for which the “CHO-hCD40L-driven DC Activation IL-12 EC50” value worked out at 756 nM and the “CHO-hCD40L-driven Human B Cell Proliferation EC50” value was 2300 nM.

For the molecule B26, the “CHO-hCD40L-driven Human B Cell Proliferation EC50” value was more than 7000 nM.

For B27, the “CHO-hCD40L-driven DC Activation IL-12 EC50” value came to 1330 nM and the “CHO-hCD40L-driven Human B Cell Proliferation EC50” value was more than 7000 nM.
